We go through six molecules from PMC7954794, “Protein context shapes the specificity of SH3 domain-mediated interactions in vivo” (Nature Communications, 2021).

The subject of the experiment is PPIs identified as affected by the SH3 domain deletions. Description: Liquid DHFR-PCA low-throughput validation of PPIs affected by SH3 deletion (Fig. S1D-E). It counts as cell-based, Saccharomyces cerevisiae. The note with it: label = prey, liquid DHFR-PCA, prey _1 = lost, _2 = gained in screen. The gist of the method: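 Growth at 30 °C was tracked by OD each 15 min over 72 h in agar-free PCA selection medium, starting at 0.1 OD. Cells were diploids selected after mating, first cultured 48 h with NAT and HPH in synthetic complete MSG medium, pH 6.0.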

B1: YGR281W_1 (protein, UniProt P53049 1-1477, looked up)
Oligomycin resistance …: MTITVGDAVSETELENKSQNVVLSPKASASSDISTDVDKDTSSSWDDKSLLPTGEYIVDRNKPQTYLNSDDIEKVTESDIFPQKRLFSFLHSKKIPEVPQTDDERKIYPLFHTNIISNMFFWWVLPILRVGYKRTIQPNDLFKMDPRMSIETLYDDFEKNMIYYFEKTRKKYRKRHPEATEEEVMENAKLPKHTVLRALLFTFKKQYFMSIVFAILANCTSGFNPMITKRLIEFVEEKAIFHSMHVNKGIGYAIGACLMMFVNGLTFNHFFHTSQLTGVQAKSILTKAAMKKMFNASNYARHCFPNGKVTSFVTTDLARIEFALSFQPFLAGFPAILAICIVLLIVNLGPIALVGIGIFFGGFFISLFAFKLILGFRIAANIFTDARVTMMREVLNNIKMIKYYTWEDAYEKNIQDIRTKEISKVRKMQLSRNFLIAMAMSLPSIASLVTFLAMYKVNKGGRQPGNIFASLSLFQVLSLQMFFLPIAIGTGIDMIIGLGRLQSLLEAPEDDPNQMIEMKPSPGFDPKLALKMTHCSFEWEDYELNDAIEEAKGEAKDEGKKNKKKRKDTWGKPSASTNKAKRLDNMLKDRDGPEDLEKTSFRGFKDLNFDIKKGEFIMITGPIGTGKSSLLNAMAGSMRKTDGKVEVNGDLLMCGYPWIQNASVRDNIIFGSPFNKEKYDEVVRVCSLKADLDILPAGDMTEIGERGITLSGGQKARINLARSVYKKKDIYLFDDVLSAVDSRVGKHIMDECLTGMLANKTRILATHQLSLIERASRVIVLGTDGQVDIGTVDELKARNQTLINLLQFSSQNSEKEDEEQEAVVAGELGQLKYESEVKELTELKKKATEMSQTANSGKIVADGHTSSKEERAVNSISLKIYREYIKAAVGKWGFIALPLYAILVVGTTFCSLFSSVWLSYWTENKFKNRPPSFYMGLYSFFVFAAFIFMNGQFTILCAMGIMASKWLNLRAVKRILHTPMSYIDTTPLGRILNRFTKDTDSLDNELTESLRLMTSQFANIVGVCVMCIVYLPWFAIAIPFLLVIFVLIADHYQSSGREIKRLEAVQRSFVYNNLNEVLGGMDTIKAYRSQERFLAKSDFLINKMNEAGYLVVVLQRWVGIFLDMVAIAFALIITLLCVTRAFPISAASVGVLLTYVLQLPGLLNTILRAMTQTENDMNSAERLVTYATELPLEASYRKPEMTPPESWPSMGEIIFENVDFAYRPGLPIVLKNLNLNIKSGEKIGICGRTGAGKSTIMSALYRLNELTAGKILIDNVDISQLGLFDLRRKLAIIPQDPVLFRGTIRKNLDPFNERTDDELWDALVRGGAIAKDDLPEVKLQKPDENGTHGKMHKFHLDQAVEEEGSNFSLGERQLLALTRALVRQSKILILDEATSSVDYETDGKIQTRIVEEFGDCTILCIAHRLKTIVNYDRILVLEKGEVAEFDTPWTLFSQEDSIFRSMCSRSGIVENDFENRS
Consider B1, for which the “Ratio (Deletedscore / WTscore)” value is listed as 0.5928 (bait BBC1), 0.6055 (bait BEM1-2), 0.4945 (bait MYO3) and 0.6948 (bait MYO5).

B2: YHR114W_1 (protein, UniProt P38822 1-633, looked up)
Protein BZZ1: MSADLSIGNEIKDSFKETHKWVQNNLKWLKDIEQFYRERAKLEKDYSERLSRLSAEYFNKKSSTSVPISVGDTPTTTPGSIEAAGVVAWNEILSQTDMISKDHDQLSTDFENHVANQLSGLFTKLDMTLSKINGFNNDMVNKKDNIYHELEKAKKDYDEACSTMEMARNRYTKASNDRNKKKLDEKEMEMNKCKNEYLIKINQANRTKDKYYFQDVPEVLDLLQDVNEAKTLFLNDLWLKAASVENDLGANVSKRLQAANSVVKQNKPSLNTAIFIKHNLKNWKEPQDFVYKPSPVWHDDEKFAVPSSLEVEDLRIKLAKAENDYNSLQDKTQNELSKLSTLNKIKHEMKTNEDNINATKFYDTLKEYLNVVSPFTSHETLKLQAEVQIESIQNNVPEEYDLSTDNIDLSKTKKKSGIFSKFKHNILNVDSKPSSGGSTGNGNGGPLHITSLFNTSRRTRLGSAPNNAGEDSDNNSIRTTSTNNTKKTTQNSSDDGKNKVLYAYVQKDDDEITITPGDKISLVARDTGSGWTKINNDTTGETGLVPTTYIRISSAATVKANDRGPAPEVPPPRRSTLPVRTMEAIYAYEAQGDDEISIDPGDIITVIRGDDGSGWTYGECDGLKGLFPTSYCK
Take B2: the “Ratio (Deletedscore / WTscore)” value reads like this: (bait BBC1) 0.6315; (bait LSB3) 0.7048; (bait MYO3) 0.5608; (bait MYO5) 0.7759; (bait RVS167) 0.6256.

B3: YLR196W_1 (protein, UniProt P21304 1-576, looked up)
Periodic tryptophan protein 1: MISATNWVPRGFSSEFPEKYVLDDEEVERINQLAQLNLDDAKATLEEAEGESGVEDDAATGSSNKLKDQLDIDDDLKEYNLEEYDDEEIADNEGGKDVSMFPGLSNDSDVKFHEGEKGEDPYISLPNQEDSQEEKQELQVYPSDNLVLAARTEDDVSYLDIYVYDDGAGFHSSDIPVEEGDEADPDVARGLVRDPALYVHHDLMLPAFPLCVEWLDYKVGSNSEEAANYAAIGTFDPQIEIWNLDCVDKAFPDMILGEPLDNSMVSLKSKKKKKKSKTGHITTHHTDAVLSMAHNKYFRSVLASTSADHTVKLWDLNSGNAARSLASIHSNKNVSSSEWHMLNGSILLTGGYDSRVALTDVRISDESQMSKYWSAMAGEEIETVTFASENIILCGTDSGNVYSFDIRNNENRKPVWTLKAHDAGISTLCSNKFIPGMMSTGAMGEKTVKLWKFPLDDATNTKGPSMVLSRDFDVGNVLTSSFAPDIEVAGTMVIGGVNKVLKLWDVFTNRSVRKSFKSELENVQARAKEEAQKIGKSSRIARKYTSNDNPDTVITIDDQGEDEEEREGGDEHDDMA
Turning to B3, the “Ratio (Deletedscore / WTscore)” value (bait BBC1) was 1.08.

B4: YLR337C_1 (protein, UniProt P37370 1-817, looked up)
Verprolin: MAGAPAPPPPPPPPALGGSAPKPAKSVMQGRDALLGDIRKGMKLKKAETNDRSAPIVGGGVVSSASGSSGTVSSKGPSMSAPPIPGMGAPQLGDILAGGIPKLKHINNNASTKPSPSASAPPIPGAVPSVAAPPIPNAPLSPAPAVPSIPSSSAPPIPDIPSSAAPPIPIVPSSPAPPLPLSGASAPKVPQNRPHMPSVRPAHRSHQRKSSNISLPSVSAPPLPSASLPTHVSNPPQAPPPPPTPTIGLDSKNIKPTDNAVSPPSSEVPAGGLPFLAEINARRSERGAVEGVSSTKIQTENHKSPSQPPLPSSAPPIPTSHAPPLPPTAPPPPSLPNVTSAPKKATSAPAPPPPPLPAAMSSASTNSVKATPVPPTLAPPLPNTTSVPPNKASSMPAPPPPPPPPPGAFSTSSALSASSIPLAPLPPPPPPSVATSVPSAPPPPPTLTTNKPSASSKQSKISSSSSSSAVTPGGPLPFLAEIQKKRDDRFVVGGDTGYTTQDKQEDVIGSSKDDNVRPSPISPSINPPKQSSQNGMSFLDEIESKLHKQTSSNAFNAPPPHTDAMAPPLPPSAPPPPITSLPTPTASGDDHTNDKSETVLGMKKAKAPALPGHVPPPPVPPVLSDDSKNNVPAASLLHDVLPSSNLEKPPSPPVAAAPPLPTFSAPSLPQQSVSTSIPSPPPVAPTLSVRTETESISKNPTKSPPPPPSPSTMDTGTSNSPSKNLKQRLFSTGGSTLQHKHNTHTNQPDVDVGRYTIGGSNSIVGAKSGNERIVIDDSRFKWTNVSQMPKPRPFQNKTKLYPSGKGSSVPLDLTLFT
With B4, the “Ratio (Deletedscore / WTscore)” value by setting is: (bait BBC1) 0.3637; (bait LSB1) 0.5725; (bait LSB3) 0.8547; (bait MYO3) 0.5955; (bait PIN3) 0.5606.

B5: YKL117W_1 (protein, UniProt P28707 2-216, looked up)
Co-chaperone protein SBA1: SDKVINPQVAWAQRSSTTDPERNYVLITVSIADCDAPELTIKPSYIELKAQSKPHVGDENVHHYQLHIDLYKEIIPEKTMHKVANGQHYFLKLYKKDLESEYWPRLTKEKVKYPYIKTDFDKWVDEDEQDEVEAEGNDAAQGMDFSQMMGGAGGAGGAGGMDFSQMMGGAGGAGSPDMAQLQQLLAQSGGNLDMGDFKENDEEDEEEEIEPEVKA
In the case of B5, the “Ratio (Deletedscore / WTscore)” value (bait BBC1) was 0.6627.

B6: YML016C_1 (protein, UniProt P26570 2-692, looked up)
Serine/threonine-protein …: GNSSSKSSKKDSHSNSSSRNPRPQVSRTETSHSVKSAKSNKSSRSRRSLPSSSTTNTNSNVPDPSTPSKPNLEVNHQRHSSHTNRYHFPSSSHSHSNSQNELLTTPSSSSTKRPSTSRRSSYNTKAAADLPPSMIQMEPKSPILKTNNSSTHVSKHKSSYSSTYYENALTDDDNDDKDNDISHTKRFSRSSNSRPSSIRSGSVSRRKSDVTHEEPNNGSYSSNNQENYLVQALTRSNSHASSLHSRKSSFGSDGNTAYSTPLNSPGLSKLTDHSGEYFTSNSTSSLNHHSSRDIYPSKHISNDDDIENSSQLSNIHASMENVNDKNNNITDSKKDPNEEFNDIMQSSGNKNAPKKFKKPIDIDETIQKLLDAGYAAKRTKNVCLKNNEILQICIKAREIFLSQPSLLELSPPVKIVGDVHGQYGDLLRLFTKCGFPPSSNYLFLGDYVDRGKQSLETILLLFCYKIKYPENFFLLRGNHECANVTRVYGFYDECKRRCNIKIWKTFIDTFNTLPLAAIVAGKIFCVHGGLSPVLNSMDEIRHVVRPTDVPDFGLINDLLWSDPTDSPNEWEDNERGVSYCYNKVAINKFLNKFGFDLVCRAHMVVEDGYEFFNDRSLVTVFSAPNYCGEFDNWGAVMSVSEGLLCSFELLDPLDSAALKQVMKKGRQERKLANQQQQMMETSITNDNESQQ
Consider B6, for which the “Ratio (Deletedscore / WTscore)” value was found to be 0.8012 (bait BBC1), 0.6049 (bait BEM1-2) and 0.8355 (bait MYO3).
